The values that follow come from paper PMC2650276 (Neuron, 2009).

Like-named read-outs stand apart in the source and are kept apart here. Where no end group is shown, it is not given here.

Holding throughout (assay): pull-down
For test [1], the target named is T1, His-tagged full-length CaMKIIα (M1-H478), wild type (rat, UniProt P11275 1-478).
Test [2] concerns the target His-tagged WT pCaMKIIα (autophosphorylated at T286) (rat, UniProt P11275 1-478, phosphothreonine at T286 (autophosphorylation)).
Test [3] concerns the target GST-tagged full-length CaMKIIα (M1-H478) (rat, UniProt P11275 1-478).
Test [4] deals with T1, His-tagged full-length CaMKIIα …. The source holds these as a separate data set.
The target is the same in test [5]. The source holds these as a separate data set.

T1 sequence (P11275 whole entry): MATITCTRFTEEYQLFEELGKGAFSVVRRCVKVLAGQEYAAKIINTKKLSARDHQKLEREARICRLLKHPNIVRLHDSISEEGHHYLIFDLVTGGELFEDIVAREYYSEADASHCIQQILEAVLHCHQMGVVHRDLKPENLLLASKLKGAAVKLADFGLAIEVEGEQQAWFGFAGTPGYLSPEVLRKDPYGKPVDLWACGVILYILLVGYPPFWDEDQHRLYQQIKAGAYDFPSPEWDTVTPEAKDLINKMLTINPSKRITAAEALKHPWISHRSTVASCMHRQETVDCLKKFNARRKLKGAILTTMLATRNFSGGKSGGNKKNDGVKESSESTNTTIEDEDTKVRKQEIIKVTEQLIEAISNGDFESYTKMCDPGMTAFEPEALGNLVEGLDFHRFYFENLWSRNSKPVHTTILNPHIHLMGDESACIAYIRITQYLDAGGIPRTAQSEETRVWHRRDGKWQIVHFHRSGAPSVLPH
Chain of His-tagged WT pCaMKIIα (autophosphorylated at T286) (P11275 whole entry): as above
Chain of GST-tagged full-length CaMKIIα (M1-H478) (P11275 whole entry): as above

B1: GST-D3RIL3 (R210-Q375) (domain or fragment, rat, UniProt P19020 210-375, looked up)
chain: RIYIVLRQRQRKRILTRQNSQCISIRPGFPQQSSCLRLHPIRQFSIRARFLSDATGQMEHIEDKQYPQKCQDPLLSHLQPPSPGQTHGGLKRYYSICQDTALRHPSLEGGAGMSPVERTRNSLSPTMAPKLSLEVRKLSNGRLSTSLRLGPLQPRGVPLREKKATQ
For B1, the binding result in test [1] and in test [2] was “binds” each time.

B2: D3RIL3 (R210-Q375), released from GST by thrombin (domain or fragment, rat, UniProt P19020 210-375, looked up)
chain: B1 chain
B2: the binding result in test [3] is listed as “binds”. YGRKKRRQRRRRILTRQNSQCISIRP (also: biotin, position not given here) [biotinylated Tat-D3Rr]: in test [4], the binding result is “binds”. Regarding RIYIVLRQRQRKRILTRQNSQCISIRPGFP (domain or fragment, rat, UniProt P19020 210-239, looked up) [GST-D3RIL3(R210-P239)], the binding result in test [5] and in test [2] was “binds” in each case.
